What was measured:
[1] = molecular target: human α-Synuclein pre-formed fibrils (human) (UniProt P37840); experiment: cell-based or functional assay
[2] = molecular target: Lewy body α-Synuclein (human) (UniProt P37840); experiment: IHC, human amygdala; OD of Lewy bodies / OD of tissue

% Inhibition (primary neuron assay) [1]	LB Discrimination Index [2]	Substance
0%		IgG (antibody)
94.7%		Syn211 (antibody)
	2.1	Syn303 (antibody)
